Measurements as given in article PMC8280513, “Marmoset glutathione transferases with ketosteroid isomerase activity” (Biochemistry and Biophysics Reports, 2021).

T1: CjaGST A1-1 (Callithrix jacchus, UniProt A0A7G0XAM3)
T1 construct: gene GSTA1; 222 amino acid residues, N-terminal hexahistidine tag
T1 sequence (A0A7G0XAM3 1-222): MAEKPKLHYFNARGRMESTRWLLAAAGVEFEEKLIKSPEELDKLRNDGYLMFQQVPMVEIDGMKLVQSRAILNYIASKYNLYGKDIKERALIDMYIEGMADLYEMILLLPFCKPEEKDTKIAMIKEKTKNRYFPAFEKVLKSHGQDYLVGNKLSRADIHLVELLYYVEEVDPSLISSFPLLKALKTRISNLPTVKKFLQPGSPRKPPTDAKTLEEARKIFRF

B1: CjaGST A1-1 (Callithrix jacchus) (protein)
chain: T1 sequence (A0A7G0XAM3 1-222)

Columns and labels:
[1] = biological target: T1, CjaGST A1-1; assay: specific activity, spectrophotometric assay; format: biochemical
[2] = substrate: [H][C@@]12CC=C3CC(=O)CC[C@]3(C)[C@@]1([H])CC[C@]1(C)C(=O)CC[C@@]21[H]; assay: purified protein; conditions: glutathione H-site; Phe111 suggested to hinder steroid binding

Molecule	specific activity [1] [µmol/min/mg]	Km [2] [µM]	kcat [2] [s⁻¹]	kcat/Km [2] [M⁻¹ s⁻¹]
O=[N+]([O-])c1ccc(Cl)c([N+](=O)[O-])c1 [CDNB, 1-chloro-2,4-dinitrobenzene]	26.1 ± 0.59			
S=C=NCCc1ccccc1 [PEITC, phenethyl isothiocyanate]	8.80 ± 1.95			
B1		303 ± 34	6.89 ± 0.79	22700
